Assay results: patent publication US20260008815A1, “CYCLIC PEPTIDE OR SALT THEREOF, AND USES THEREOF” (FUJIFILM Corporation, priority 2023, published 2026)
Bridge positions count the residues as written; N and C are the ends. Ends that are not written are not given here. COCH2 = acetyl group that carries the bridge

Molecular target: T1, Recombinant Human FGFR2 alpha (IIIc) Fc Chimera Protein (Homo sapiens, UniProt P21802)
T1 construct: Fc (chimera); purchased R&D systems 712-FR-050
Assay: ELISA binding affinity of enzymatically synthesized peptide to FGFR
Conditions: ELISA luminescence signal at 10 nmol/L peptide, SEQ ID NO: 47 at 10 nmol/L standardized to 1; enzyme synthesis product
Procedure, shortened: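 FGFR2 alpha (IIIc) Fc chimera (5 ng/well) was immobilized, and Myc-tagged peptide was bound 3 h at room temperature, then detected with anti-Myc antibody (2 h) and chemiluminescent substrate. Signal was corrected against FGFR-free wells. Score A–D was the luminescence at 10 nmol/L peptide, normalized to cyclic peptide SEQ ID NO: 47.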

T1 sequence (P21802 with tags, fused parts or gaps limits assumed): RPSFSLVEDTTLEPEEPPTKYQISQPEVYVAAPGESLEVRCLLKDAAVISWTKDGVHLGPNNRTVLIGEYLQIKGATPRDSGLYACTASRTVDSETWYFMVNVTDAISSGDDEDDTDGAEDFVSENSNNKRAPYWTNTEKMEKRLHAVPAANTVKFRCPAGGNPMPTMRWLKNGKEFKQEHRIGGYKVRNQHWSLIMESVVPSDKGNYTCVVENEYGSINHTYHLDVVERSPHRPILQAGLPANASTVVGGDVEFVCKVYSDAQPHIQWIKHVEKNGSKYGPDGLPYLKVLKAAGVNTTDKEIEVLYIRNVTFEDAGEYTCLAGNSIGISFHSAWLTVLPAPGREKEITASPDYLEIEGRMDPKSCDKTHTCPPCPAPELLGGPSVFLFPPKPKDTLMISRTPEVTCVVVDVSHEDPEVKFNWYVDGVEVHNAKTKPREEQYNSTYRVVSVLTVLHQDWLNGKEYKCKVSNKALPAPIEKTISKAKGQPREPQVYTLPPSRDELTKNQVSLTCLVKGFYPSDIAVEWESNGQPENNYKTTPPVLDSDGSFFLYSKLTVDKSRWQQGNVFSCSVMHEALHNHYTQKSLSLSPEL

Evaluation result of binding affinity to FGFR | Substance
B (0.5 or more and less than 0.7) | 261 (YCEENYLDPEQYFYFIYFK(COCH2)Y; thioether 2-19) [compound 261]
A (0.7 or more) | 262 (YCEENYLDPEQYYYFIYFK(COCH2)Y; thioether 2-19) [compound 262]
A (0.7 or more) | 263 (YCEENYLDPEQYWYFIYFK(COCH2)Y; thioether 2-19) [compound 263]
A (0.7 or more) | 264 (YCEENYLDPEQYNYFIYFK(COCH2)Y; thioether 2-19) [compound 264]
A (0.7 or more) | 265 (YCEENYLDPEQYSYFIYFK(COCH2)Y; thioether 2-19) [compound 265]
A (0.7 or more) | 266 (YCEENYLDPEQYTYFIYFK(COCH2)Y; thioether 2-19) [compound 266]
A (0.7 or more) | 267 (YCEENYLDPEQYDYFIYFK(COCH2)Y; thioether 2-19) [compound 267]
A (0.7 or more) | 268 (YCEENYLDPEQYEYFIYFK(COCH2)Y; thioether 2-19) [compound 268]
A (0.7 or more) | 269 (YCEENYLDPEQYRYFIYFK(COCH2)Y; thioether 2-19) [compound 269]
A (0.7 or more) | 270 (YCEENYLDPEQYHYFIYFK(COCH2)Y; thioether 2-19) [compound 270]
C (0.1 or more and less than 0.5) | 271 (YCEENYLDPEQYQIFIYFK(COCH2)Y; thioether 2-19) [compound 271]
A (0.7 or more) | 272 (YCEENYLDPEQYQFFIYFK(COCH2)Y; thioether 2-19) [compound 272]
C (0.1 or more and less than 0.5) | 273 (YCEENYLDPEQYQNFIYFK(COCH2)Y; thioether 2-19) [compound 273]
C (0.1 or more and less than 0.5) | 274 (YCEENYLDPEQYQHFIYFK(COCH2)Y; thioether 2-19) [compound 274]
A (0.7 or more) | 275 (YCEENYLDPEQYQYLIYFK(COCH2)Y; thioether 2-19) [compound 275]
B (0.5 or more and less than 0.7) | 276 (YCEENYLDPEQYQYYIYFK(COCH2)Y; thioether 2-19) [compound 276]
C (0.1 or more and less than 0.5) | 277 (YCEENYLDPEQYQYFGYFK(COCH2)Y; thioether 2-19) [compound 277]
A (0.7 or more) | 278 (YCEENYLDPEQYQYFLYFK(COCH2)Y; thioether 2-19) [compound 278]
A (0.7 or more) | 279 (YCEENYLDPEQYQYFVYFK(COCH2)Y; thioether 2-19) [compound 279]
A (0.7 or more) | 280 (YCEENYLDPEQYQYFFYFK(COCH2)Y; thioether 2-19) [compound 280]
A (0.7 or more) | 281 (YCEENYLDPEQYQYFYYFK(COCH2)Y; thioether 2-19) [compound 281]

Evaluation result of binding affinity to FGFR | Substance
A (0.7 or more) | 282 (YCEENYLDPEQYQYFWYFK(COCH2)Y; thioether 2-19) [compound 282]
A (0.7 or more) | 283 (YCEENYLDPEQYQYFNYFK(COCH2)Y; thioether 2-19) [compound 283]
A (0.7 or more) | 284 (YCEENYLDPEQYQYFQYFK(COCH2)Y; thioether 2-19) [compound 284]
A (0.7 or more) | 285 (YCEENYLDPEQYQYFSYFK(COCH2)Y; thioether 2-19) [compound 285]
A (0.7 or more) | 286 (YCEENYLDPEQYQYFTYFK(COCH2)Y; thioether 2-19) [compound 286]
A (0.7 or more) | 287 (YCEENYLDPEQYQYFDYFK(COCH2)Y; thioether 2-19) [compound 287]
A (0.7 or more) | 288 (YCEENYLDPEQYQYFEYFK(COCH2)Y; thioether 2-19) [compound 288]
A (0.7 or more) | 289 (YCEENYLDPEQYQYFRYFK(COCH2)Y; thioether 2-19) [compound 289]
A (0.7 or more) | 290 (YCEENYLDPEQYQYFHYFK(COCH2)Y; thioether 2-19) [compound 290]
B (0.5 or more and less than 0.7) | 291 (YCEENYLDPEQYQYFIGFK(COCH2)Y; thioether 2-19) [compound 291]
C (0.1 or more and less than 0.5) | 292 (YCEENYLDPEQYQYFIPFK(COCH2)Y; thioether 2-19) [compound 292]
A (0.7 or more) | 293 (YCEENYLDPEQYQYFILFK(COCH2)Y; thioether 2-19) [compound 293]
B (0.5 or more and less than 0.7) | 294 (YCEENYLDPEQYQYFIIFK(COCH2)Y; thioether 2-19) [compound 294]
A (0.7 or more) | 295 (YCEENYLDPEQYQYFIVFK(COCH2)Y; thioether 2-19) [compound 295]
A (0.7 or more) | 296 (YCEENYLDPEQYQYFIFFK(COCH2)Y; thioether 2-19) [compound 296]
A (0.7 or more) | 297 (YCEENYLDPEQYQYFIWFK(COCH2)Y; thioether 2-19) [compound 297]
A (0.7 or more) | 298 (YCEENYLDPEQYQYFINFK(COCH2)Y; thioether 2-19) [compound 298]
A (0.7 or more) | 299 (YCEENYLDPEQYQYFIQFK(COCH2)Y; thioether 2-19) [compound 299]
A (0.7 or more) | 300 (YCEENYLDPEQYQYFISFK(COCH2)Y; thioether 2-19 (inferred)) [compound 300]
A (0.7 or more) | 301 (YCEENYLDPEQYQYFITFK(COCH2)Y; thioether 2-19 (inferred)) [compound 301]
A (0.7 or more) | 302 (YCEENYLDPEQYQYFIDFK(COCH2)Y; thioether 2-19 (inferred)) [compound 302]

Evaluation result of binding affinity to FGFR | Substance
A (0.7 or more) | 303 (YCEENYLDPEQYQYFIEFK(COCH2)Y; thioether 2-19 (inferred)) [compound 303]
A (0.7 or more) | 304 (YCEENYLDPEQYQYFIRFK(COCH2)Y; thioether 2-19 (inferred)) [compound 304]
A (0.7 or more) | 305 (YCEENYLDPEQYQYFIHFK(COCH2)Y; thioether 2-19 (inferred)) [compound 305]
A (0.7 or more) | 306 (YCEENYLDPEQYQYFIYYK(COCH2)Y; thioether 2-19 (inferred)) [compound 306]
A (0.7 or more) | 307 (YCEENYLDPEQYQYFIYWK(COCH2)Y; thioether 2-19 (inferred)) [compound 307]
A (0.7 or more) | 308 (YCEENYLDPEQYQYFIYFK(COCH2)G; thioether 2-19 (inferred)) [compound 308]
A (0.7 or more) | 309 (YCEENYLDPEQYQYFIYFK(COCH2)L; thioether 2-19 (inferred)) [compound 309]
A (0.7 or more) | 310 (YCEENYLDPEQYQYFIYFK(COCH2)I; thioether 2-19 (inferred)) [compound 310]
A (0.7 or more) | 311 (YCEENYLDPEQYQYFIYFK(COCH2)V; thioether 2-19 (inferred)) [compound 311]
A (0.7 or more) | 312 (YCEENYLDPEQYQYFIYFK(COCH2)F; thioether 2-19 (inferred)) [compound 312]
A (0.7 or more) | 313 (YCEENYLDPEQYQYFIYFK(COCH2)W; thioether 2-19 (inferred)) [compound 313]
A (0.7 or more) | 314 (YCEENYLDPEQYQYFIYFK(COCH2)N; thioether 2-19 (inferred)) [compound 314]
A (0.7 or more) | 315 (YCEENYLDPEQYQYFIYFK(COCH2)Q; thioether 2-19 (inferred)) [compound 315]
A (0.7 or more) | 316 (YCEENYLDPEQYQYFIYFK(COCH2)S; thioether 2-19 (inferred)) [compound 316]
A (0.7 or more) | 317 (YCEENYLDPEQYQYFIYFK(COCH2)T; thioether 2-19 (inferred)) [compound 317]
A (0.7 or more) | 318 (YCEENYLDPEQYQYFIYFK(COCH2)D; thioether 2-19 (inferred)) [compound 318]
A (0.7 or more) | 319 (YCEENYLDPEQYQYFIYFK(COCH2)E; thioether 2-19 (inferred)) [compound 319]
A (0.7 or more) | 320 (YCEENYLDPEQYQYFIYFK(COCH2)R; thioether 2-19 (inferred)) [compound 320]
A (0.7 or more) | 321 (YCEENYLDPEQYQYFIYFK(COCH2)H; thioether 2-19 (inferred)) [compound 321]
A (0.7 or more) | 322 (ACEENYLDPEQYQYFIYFK(COCH2)Y; thioether 2-19 (inferred)) [compound 322]
